These results are taken from publication PMC7337899, “E. coli Rep helicase and RecA recombinase unwind G4 DNA and are important for resistance to G4-stabilizing ligands” (Nucleic Acids Research, 2020).

Substrate in this data set: Nc1ncnc2c1ncn2[C@@H]1O[C@H](COP(=O)(O)OP(=O)(O)OP(=O)(O)O)[C@@H](O)[C@H]1O
In words: purified protein. The class given is biochemical, Escherichia coli. To be noted: non-parallel (TTAGGG)4-T15 G4 DNA, 100 nM protein, 1 μM to 2 mM ATP, 50 mM KCl, 3 mM MgCl2, pH 7.5, ~23 °C.

B1: UvrD (Escherichia coli K-12) (protein)
chain: MDVSYLLDSLNDKQREAVAAPRSNLLVLAGAGSGKTRVLVHRIAWLMSVENCSPYSIMAVTFTNKAAAEMRHRIGQLMGTSQGGMWVGTFHGLAHRLLRAHHMDANLPQDFQILDSEDQLRLLKRLIKAMNLDEKQWPPRQAMWYINSQKDEGLRPHHIQSYGNPVEQTWQKVYQAYQEACDRAGLVDFAELLLRAHELWLNKPHILQHYRERFTNILVDEFQDTNNIQYAWIRLLAGDTGKVMIVGDDDQSIYGWRGAQVENIQRFLNDFPGAETIRLEQNYRSTSNILSAANALIENNNGRLGKKLWTDGADGEPISLYCAFNELDEARFVVNRIKTWQDNGGALAECAILYRSNAQSRVLEEALLQASMPYRIYGGMRFFERQEIKDALSYLRLIANRNDDAAFERVVNTPTRGIGDRTLDVVRQTSRDRQLTLWQACRELLQEKALAGRAASALQRFMELIDALAQETADMPLHVQTDRVIKDSGLRTMYEQEKGEKGQTRIENLEELVTATRQFSYNEEDEDLMPLQAFLSHAALEAGEGQADTWQDAVQLMTLHSAKGLEFPQVFIVGMEEGMFPSQMSLDEGGRLEEERRLAYVGVTRAMQKLTLTYAETRRLYGKEVYHRPSRFIGELPEECVEEVRLRATVSRPVSHQRMGTPMVENDSGYKLGQRVRHAKFGEGTIVNMEGSGEHSRLQVAFQGQGIKWLVAAYARLESV
notes: expressed in E. coli BL21(DE3) pLysS; Polymin P, ammonium sulfate, heparin and Sephacryl S-300 purification; no tag mentioned
As to B1, the Km (commonly the substrate concentration at which the rate is half of its maximum) stood at 42.52 ± 13.8 µM.
